Test results from IntAct's records for PubMed 27150041.

B1: Smu-2 suppressor of mec-8 and unc-52 protein (Caenorhabditis elegans), Q9N4U5 (parent)
chain: MADNPTNLRNADFRKLLTSARSDRPAVSAFAKPADPKTGDDKPASFKHKHLKPAKFKKPQAAAHGKAKKEKTEADEDEAALKNILKNYRDRAAERRKQGDEKEDPSKLTAAYRAVPGDARSAQDQADLRKQAILESKYLGGDLEHTHLVKGLDYSLLNKVRSEIDKSDDDDDDDIDTAFDEKVTSSSSSSKPSEASLLAQELAQSHSENRMVRSLHRVLFKNEVPLHNQLFAKGRMAYVVELEDEETDIPTTLLRSLHDLPRAESAQSIQANNLIILKLSHVLSHLRAEPKKKKKEEFRVQLGSRDAPGAAAAAPGAKGDSIYDDLDDYVPSRKSRDSRDAGRRGSRRDRSRDRSRDRDRDRDRDNRDRYFEKSANSRREEEQNRREQQRERERAEQERRREREKEREQEKAKEREKKRKELEESSGYDECYPGGLVEMGGAWDSDEEADYSKMDAGPKKNQAVNRWDFDTEEEYASYMEGREALPKAAYQYGVKNGEGGRKNKKQSAVSDAKRLDRELNEINKIMDKRKAGGDGAGGGGDYKKPKY

Variants of: B1
Conditions: with smu1_caeel smu-1, G5EEG7
smu1_caeel smu-1, G5EEG7, sequence (G5EEG7 whole entry): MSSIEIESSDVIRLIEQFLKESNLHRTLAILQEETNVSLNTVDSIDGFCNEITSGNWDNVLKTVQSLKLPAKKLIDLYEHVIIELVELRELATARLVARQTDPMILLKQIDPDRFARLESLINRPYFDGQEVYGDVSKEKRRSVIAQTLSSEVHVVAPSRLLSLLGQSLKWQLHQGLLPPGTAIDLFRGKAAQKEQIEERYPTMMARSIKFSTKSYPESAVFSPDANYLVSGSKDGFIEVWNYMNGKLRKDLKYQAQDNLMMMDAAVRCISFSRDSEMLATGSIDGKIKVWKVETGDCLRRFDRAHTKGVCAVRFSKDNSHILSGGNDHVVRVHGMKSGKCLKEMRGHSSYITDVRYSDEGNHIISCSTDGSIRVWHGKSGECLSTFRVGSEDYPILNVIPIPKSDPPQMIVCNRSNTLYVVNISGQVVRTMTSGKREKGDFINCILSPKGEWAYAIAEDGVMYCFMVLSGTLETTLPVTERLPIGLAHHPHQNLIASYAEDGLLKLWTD

| Variant | effect of a mutation on the interaction |
| --- | --- |
| F220R | disrupting interaction strength |
| V212R | disrupting interaction strength |
